For data set [1], the target named is staphylococcal enterotoxin B (SEB) (Staphylococcus aureus, UniProt P01552 28-266).
For data set [2], the target named is staphylococcal enterotoxin C3 (SEC3) (Staphylococcus aureus, UniProt P0A0L5 28-266).
Data set [3] concerns the target staphylococcal enterotoxin C1 (SEC1) (Staphylococcus aureus, UniProt P01553 28-266).
Data set [4] addresses staphylococcal enterotoxin C2 (SEC2) (Staphylococcus aureus, UniProt P34071 28-266).

Experimental findings from PMC3306407, “A Single-Stranded DNA Aptamer That Selectively Binds to Staphylococcus aureus Enterotoxin B” are described below.

B1: APTSEB1 (ssDNA)
DNA: GGTATTGAGGGTCGCATCCACTGGTCGTTGTTGTCTGTTGTCTGTTATGTTGTTTCGTGATGGCTCTAACTCTCCTCT
In the case of B1, the binding result in data set [1] is given as “binds”; in data set [2] it was “no binding”; in data set [3], “no binding”; in data set [4] it was “no binding”.
